Source: patent US20210347908A1 (ELPISCIENCE SUZHOU BIOPHARMA, published 2021)
Substitutions are numbered along the chain they refer to. Each block holds one binder with its values, some of them ahead of it.

Tests used:
[1] = molecular target: T1, biotin labeled soluble human SIRPα v1 ECD recombinant protein (human, UniProt P78324 31-373, biotin labeled); assay: competitive ELISA; competitor HEFLB
T1 construct: extracellular domain
Experimental: (§1) Competitive ELISA assay was used for epitope binning of 9 functional antibodies. Briefly excessive competitor antibody and biotin labeled soluble human SIRPα v1 ECD recombinant protein were co-incubated with ELISA microplate coated antibody. After washing, HRP-SA was added and incubated at 37° C. for 1 hour. Then, […] of TMB solution (Biotechnology) was added. After incubation for 15 minutes at room temperature, the reaction was stopped by the addition of […] of 1N HCl. OD 450 nm was read. Competition ratio was calculated. The antibodies that can compete each other for binding to SIRPα have the similar binding epitope.

[2] = molecular target: T1, biotin labeled soluble human SIRPα v1 …; assay: competitive ELISA; competitor 022
Experimental: as §1

[3] = molecular target: T1, biotin labeled soluble human SIRPα v1 …; assay: competitive ELISA; competitor 055
Experimental: as §1

[4] = molecular target: T1, biotin labeled soluble human SIRPα v1 …; assay: competitive ELISA; competitor 050
Experimental: as §1

[5] = molecular target: T2, Fc tagged human SIRPβ ECD recombinant protein (human, UniProt O00241 30-371); assay: ELISA
T2 construct: range 1-371; cloned range includes the signal peptide; also called hSIRPβ; not shown: human IgG Fc region (hFc) of the pCPC vector
T2 sequence (O00241 30-371 limits assumed, form in doubt): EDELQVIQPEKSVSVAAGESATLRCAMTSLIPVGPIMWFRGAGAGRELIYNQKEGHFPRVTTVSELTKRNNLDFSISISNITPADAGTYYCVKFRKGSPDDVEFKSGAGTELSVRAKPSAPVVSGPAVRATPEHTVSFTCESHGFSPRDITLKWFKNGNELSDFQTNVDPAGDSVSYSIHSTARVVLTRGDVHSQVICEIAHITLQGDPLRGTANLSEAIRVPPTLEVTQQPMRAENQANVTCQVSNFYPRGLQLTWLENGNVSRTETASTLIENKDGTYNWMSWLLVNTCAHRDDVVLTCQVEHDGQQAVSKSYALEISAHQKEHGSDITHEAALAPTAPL
Experimental: Binding specificity of the purified hybridoma antibodies against SIRP family members was detected by ELISA assay using recombinant proteins of Fc tagged human SIRPα v1 ECD, human SIRPα v2 ECD, human SIRPβ ECD and human SIRPγ ECD. Briefly the antibodies were incubated with ELISA microplate coated antigens at 37° C. for 1 hour. After washing, horseradish peroxidase (HRP) labeled anti-mouse or anti-human IgG 2nd Ab (Sigma) was added and incubated at 37° C. for 1 hour. Then, 100 μl/well of TMB solution (Biotechnology) was added. After incubation for 15 minutes at room temperature, the reaction was stopped by the addition of 50 μl of 1N HCl. OD 450 nm was read and EC₅₀ was calculated. Other than 060 and HEFLB, all of the antibodies as tested can bind with both human SIRPα v1 and SIRPα v2. 060 and HEFLB can bind with human SIRPα v1 but not v2. Other than 055, all of the antibodies as tested can bind with human SIRPβ. In comparison with other known anti-SIRPα antibodies, only 022, 035 and 050 can bind with human SIRPγ weakly.
The purified chimeric antibodies were applied for binding specificity analysis and species cross reactivity analysis (refer to methods described in Example 3.3 and 3.4). FIGS. 1A to 1D show binding specificity of anti-SIRPα chimeric antibodies against recombinant proteins of human SIRPα v1 ECD (A), human SIRPα v2 ECD (B), human SIRPβ ECD (C) and human SIRPγ ECD (D) as measured by ELISA analysis.

T1 sequence (P78324 31-373): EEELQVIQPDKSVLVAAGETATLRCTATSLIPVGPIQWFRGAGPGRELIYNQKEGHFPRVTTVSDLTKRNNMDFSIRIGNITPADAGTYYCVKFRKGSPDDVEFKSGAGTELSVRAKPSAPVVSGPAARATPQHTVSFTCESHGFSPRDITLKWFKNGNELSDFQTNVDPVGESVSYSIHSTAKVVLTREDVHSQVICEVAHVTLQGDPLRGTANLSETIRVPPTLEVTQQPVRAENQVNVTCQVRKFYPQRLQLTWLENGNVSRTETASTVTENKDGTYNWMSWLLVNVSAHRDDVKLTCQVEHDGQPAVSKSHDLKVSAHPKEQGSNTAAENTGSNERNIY

% Competition [1]: -14%
% Competition [2]: -5%
% Competition [3]: -17%
% Competition [4]: 7%
B1: Antibody 074 (hybridoma antibody) (antibody, V domains shown)
VH: QVQLQQPRAELVKPGASVMLSCKASGYTFSSYWIHWVRQGPGQGLEWIGLIHPNSGNTDCSETFKNKATLTVDTSSSTAYMQLSSLASEDSAVYYCARDGASYDWFVHWGQGTLVTVSA
VL: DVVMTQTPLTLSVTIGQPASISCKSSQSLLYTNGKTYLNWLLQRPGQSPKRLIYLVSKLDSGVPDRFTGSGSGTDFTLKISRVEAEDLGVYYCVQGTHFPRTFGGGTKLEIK
notes: mouse hybridoma antibody

% Competition [1]: -3%
% Competition [2]: 10%
% Competition [3]: 7%
% Competition [4]: 14%
B2: Antibody 060 (hybridoma antibody) (antibody, V domains shown)
VH: QVQLKESGPGLVAPSESLSITCTVSGFSLTNYDISWIRQSPGKGLEWLGVIWTGGDTNFNSAFMSRLSISKDKSKSQVFLKLNSLQTDDTAIYYCVRVQYFGGSYGPMDYWGQGISVTVSS
VL: DIQMTQASSYLSVSLGGRVTITCEASDHINDWLAWYQQTPGNAPRLLISGATSLETGVPSRFSGSGSGKDYTLSITSLQTEDIATYYCQQYWNTPLTFGAGTRLELK
notes: mouse hybridoma antibody

% Competition [1]: 14%
% Competition [2]: 1%
% Competition [3]: 3%
% Competition [4]: 4%
B4: Antibody 032 (hybridoma antibody) (antibody, V domains shown)
VH: EVRLEESGGGLVQPGGSMKLSCVVSGFTFRNYWMNWVRQSPERGLEWIAEITLKSNTYATHYAESVKGRFAISRDDSKSSFYLQMNDLRPEDTGIYYCTTFTKVVADWHLDVWGAGTTVTVSS
VL: DVLMTQTPLSLPVNLGDQASISCRSSQNIVHSNGNTYLEWYLQKPGQSPKLLIYKVSNRFSGVPDRFSGSGSGTDFTLRISRVEAEDLGVYYCFQGSHVPFTFGSGTKLEIK
notes: mouse hybridoma antibody

% Competition [1]: 88%
% Competition [2]: 4%
% Competition [3]: 1%
% Competition [4]: 4%
EC50 [5]: 0.08 nM
B6: reference antibody HEFLB (antibody, V domains shown)
VH: EVQLVQSGAEVKKPGESLRISCKASGYSFTSYWVHWVRQMPGKGLEWMGNIDPSDSDTHYSPSFQGHVTLSVDKSISTAYLQLSSLKASDTAMYYCVRGGTGTLAYFAYWGQGTLVTVSS
VL: DVVMTQSPLSLPVTLGQPASISCRSSQSLVHSYGNTYLYWFQQRPGQSPRLLIYRVSNRFSGVPDRFSGSGSGTDFTLKISRVEAEDVGVYYCFQGTHVPYTFGGGTKVEIK

Continued, binder first:

B3: Antibody 001 (hybridoma antibody) (antibody, V domains shown)
VH: B4 VH with R3K, V24A, T52S, D76G, P90A
VL: B4 VL with N14S
notes: mouse hybridoma antibody
% Competition [1]: 36%
% Competition [2]: -19%
% Competition [3]: 4%
% Competition [4]: 5%

B5: Antibody 002 (hybridoma antibody) (antibody, V domains shown)
VH: B4 VH with R3K, K19I, V24A
VL: B4 VL with N14S, V56I, K112Q
notes: mouse hybridoma antibody
% Competition [1]: 7%
% Competition [2]: -5%
% Competition [3]: -16%
% Competition [4]: -13%
